Two molecules from US20130287781A1 (GlaxoSmithKline, published 2013) can be followed below.

Assay [1] has as its target T1, Squirrel monkey NOGO (A56) plus GST tag (squirrel monkey).
T1 construct: also called GST-NOGO-A56 from squirrel monkey
Kind of assay: SPR (Biacore), reverse format: antibody captured by Protein A; end of the range tied to squirrel monkey by Table 19.
From the text: Protein A was immobilised on the surface at about 4000RUs and anti-Nogo-A antibodies were captured at approximately 300-400RUs. […] All the runs were done in duplicates. The values show the mean and standard deviation (in brackets) of 1-3 independent runs with each run done in duplicate and each data set analysed independently prior to calculation of the mean and standard deviation.

Assay [2] concerns the target T2, GST-human NOGO-A56 (human).
T2 construct: Expressed in E. coli BL21 from pGEX-6P1 and purified on glutathione-sepharose; the GST tag is part of the protein in the assays; also called GST-Nogo-A 5+6; GST Nogo-A 5 + 6
As to the kind of experiment: competition ELISA on coated GST-Nogo-A 5+6; competitor 2A10 pre-mixed, bound 2A10 detected with anti-mouse IgG-HRP.
From the text: Recombinant human Nogo-A (GST-Nogo-A 5+6) was coated to the plates. […] IC50 values were derived using Robosage.

Assay [3] addresses T2, GST-human NOGO-A56. Kind of assay: SPR (Biacore) off-rate ranking on GST-human NOGO-A56 chip, one experiment.
Method: GST-human NOGO-A56 was immobilised to a CM5 chip by primary amine coupling using the Biacore Wizard program designed for targeted immobilisation levels. The CM5 sensor surface was activated by passing a solution of 50 mM N-hydroxy-succinimide (NHS) and 200 mM N-ethyl-N′-dimethylaminopropyl carbonide (EDC). Then GST-human NOGO-A56 in sodium acetate buffer, pH5.0 or pH 4.5, was passed over the chip and immobilised. After immobilisation was complete any still activated esters were blocked by an injection of 1M ethanolamine hydrochloride, pH8.5.
The GST-human NOGO-A56 chip was prepared as for kinetic analysis. Cell supernatants where taken directly from transient transfections of CHO-K1 cells. These were passed directly over the sensor surface and the interaction measured. A mock transfected cell supernatant was used for double referencing to remove any artefacts due to the tissue culture media. All runs were referenced against a blanked sensor surface (one that had been activated and blocked as described earlier but had no addition of ligand). Analysis of binding was carried out using the BIAevaluation kinetic analysis software version 4.1.
Assay [4] addresses T3, Cynomolgus monkey NOGO (A56) plus GST tag (cynomolgus monkey).
T3 construct: also called cynomolgus Nogo-A; GST-NOGO-A56 from cynomolgus
As to the kind of experiment: SPR (Biacore), both formats.
From the text: (§1) Approximately 140-180RUs of the various Nogo-A orthologues were captured to the CM5 chip by primary amine coupling. […] The values show the mean and standard deviation (in brackets) of 1-2 independent runs carried out in duplicate with each data set independently analysed prior to calculation of the mean and standard deviation.
(§2) Protein A was immobilised on the surface at about 4000RUs and anti-Nogo-A antibodies were captured at approximately 300-400RUs. […] All the runs were done in duplicates.

The target in assay [5] is T4, Rat NOGO (A56) plus GST tag (rat).
T4 construct: also called GST-NOGO-A56 from rat
T4 sequence (chain, as listed by the source limits assumed): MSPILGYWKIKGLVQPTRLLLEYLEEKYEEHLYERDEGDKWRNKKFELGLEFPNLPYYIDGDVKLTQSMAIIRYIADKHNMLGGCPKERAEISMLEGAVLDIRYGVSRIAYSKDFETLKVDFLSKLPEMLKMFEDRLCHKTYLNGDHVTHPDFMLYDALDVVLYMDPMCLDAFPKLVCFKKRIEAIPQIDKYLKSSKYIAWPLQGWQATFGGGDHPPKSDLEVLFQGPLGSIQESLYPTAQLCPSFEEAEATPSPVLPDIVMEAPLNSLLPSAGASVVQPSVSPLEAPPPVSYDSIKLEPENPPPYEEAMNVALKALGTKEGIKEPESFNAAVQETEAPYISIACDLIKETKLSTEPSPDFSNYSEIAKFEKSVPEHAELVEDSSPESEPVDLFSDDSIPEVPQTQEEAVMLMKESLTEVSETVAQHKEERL
Kind of assay: SPR (Biacore), both formats.
From the text: as §1, §2

T2 sequence (chain, as listed by the source limits assumed): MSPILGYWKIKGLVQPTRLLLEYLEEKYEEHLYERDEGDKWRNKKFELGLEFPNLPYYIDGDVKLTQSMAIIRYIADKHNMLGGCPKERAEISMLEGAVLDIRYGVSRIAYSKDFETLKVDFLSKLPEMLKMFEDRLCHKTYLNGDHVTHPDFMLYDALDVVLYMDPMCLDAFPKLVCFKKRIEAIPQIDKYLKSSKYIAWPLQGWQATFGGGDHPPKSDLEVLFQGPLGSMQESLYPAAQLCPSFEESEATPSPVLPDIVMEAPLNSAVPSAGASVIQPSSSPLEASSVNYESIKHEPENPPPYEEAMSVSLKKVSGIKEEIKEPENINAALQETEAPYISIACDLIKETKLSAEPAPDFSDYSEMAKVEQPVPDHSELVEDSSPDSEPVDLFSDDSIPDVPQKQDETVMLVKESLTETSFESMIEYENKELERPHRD
T3 sequence (chain, as listed by the source limits assumed): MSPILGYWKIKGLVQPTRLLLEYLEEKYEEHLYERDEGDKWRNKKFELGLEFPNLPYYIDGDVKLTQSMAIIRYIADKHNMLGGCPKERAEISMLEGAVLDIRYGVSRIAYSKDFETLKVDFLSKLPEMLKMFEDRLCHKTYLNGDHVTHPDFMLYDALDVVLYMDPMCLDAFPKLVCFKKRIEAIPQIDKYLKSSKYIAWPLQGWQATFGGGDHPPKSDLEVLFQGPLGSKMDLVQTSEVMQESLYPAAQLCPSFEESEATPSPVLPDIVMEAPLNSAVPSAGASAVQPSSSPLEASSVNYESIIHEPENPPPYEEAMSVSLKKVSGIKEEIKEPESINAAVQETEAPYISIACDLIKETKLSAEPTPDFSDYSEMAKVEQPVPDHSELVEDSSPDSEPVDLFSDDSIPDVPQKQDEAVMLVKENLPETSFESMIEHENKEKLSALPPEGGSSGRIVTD
T1 sequence (chain, as listed by the source limits assumed): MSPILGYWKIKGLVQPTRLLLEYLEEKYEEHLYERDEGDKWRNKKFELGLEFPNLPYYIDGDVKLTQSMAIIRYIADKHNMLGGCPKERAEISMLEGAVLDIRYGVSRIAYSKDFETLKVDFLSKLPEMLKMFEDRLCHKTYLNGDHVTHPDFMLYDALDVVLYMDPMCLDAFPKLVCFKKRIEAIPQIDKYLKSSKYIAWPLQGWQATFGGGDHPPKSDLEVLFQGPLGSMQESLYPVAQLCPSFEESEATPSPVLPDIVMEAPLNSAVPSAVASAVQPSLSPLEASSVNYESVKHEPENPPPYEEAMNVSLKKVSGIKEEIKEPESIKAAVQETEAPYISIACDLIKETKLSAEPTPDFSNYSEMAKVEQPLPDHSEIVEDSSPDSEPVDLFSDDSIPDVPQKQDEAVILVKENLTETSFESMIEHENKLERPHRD

B1: H28L16 (antibody, human IgG1, kappa)
heavy: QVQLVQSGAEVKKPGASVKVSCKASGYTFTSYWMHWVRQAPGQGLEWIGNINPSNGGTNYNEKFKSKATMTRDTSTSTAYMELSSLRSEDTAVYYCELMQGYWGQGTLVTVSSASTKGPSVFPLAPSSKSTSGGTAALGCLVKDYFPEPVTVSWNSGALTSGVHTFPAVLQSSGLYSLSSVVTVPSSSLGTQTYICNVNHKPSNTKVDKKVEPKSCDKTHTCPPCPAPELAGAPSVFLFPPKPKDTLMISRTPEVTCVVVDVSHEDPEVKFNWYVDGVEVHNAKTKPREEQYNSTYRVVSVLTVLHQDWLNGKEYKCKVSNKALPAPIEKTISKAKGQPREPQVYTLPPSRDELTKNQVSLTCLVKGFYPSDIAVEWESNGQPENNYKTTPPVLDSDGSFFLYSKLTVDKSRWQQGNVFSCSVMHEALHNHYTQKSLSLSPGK
light: DIVMTQSPLSNPVTLGQPVSISCRSSKSLLYKDGKTYLNWFLQRPGQSPQLLIYLMSTRASGVPDRFSGGGSGTDFTLKISRVEAEDVGVYYCQQLVEYPLTFGQGTKLEIKRTVAAPSVFIFPPSDEQLKSGTASVVCLLNNFYPREAKVQWKVDNALQSGNSQESVTEQDSKDSTYSLSSTLTLSKADYEKHKVYACEVTHQGLSSPVTKSFNRGEC
notes: IgG1 (L235A, G237A) / kappa; CAMPATH-1H signal (1-19) left out; also called H28FL L16FL; NOGO H28L16
In the case of B1, the “fold lower affinity than for human Nogo-A” value in assay [1] is 17 fold. In addition, the “IC50 (read off the curve)” value in the assay with GST-human NOGO-A56 [2] is around 4 µg/mL.

B2: HcLc (chimera of 2A10: murine 2A10 VH and VL with human IgG constant regions) (antibody, V domains shown)
VH: QVQLQQPGTELVKPGASVKLSCKASGYTFTSYWMHWVKQRPGQGLEWIGNINPSNGGTNYNEKFKSKATLTVDKSSSTAYMQLSSLTSEDSAVYYCELGQGYWGQGTLVTVSS
VL: DIVITQDELSNPVTSGESVSISCRSSKSLLYKDGKTYLNWFLQRPGQSPQLLIYLMSTRASGVSDRFSGSGSGTDFTLEISRVKAEDVGVYYCQQLVEYPLTFGAGTKLELKR
notes: also called chimeric antibody; chimeric form of the parental antibody
On to B2, for which, in the assay with GST-human NOGO-A56 [3], the koff amounted to 0.00266 s⁻¹. Further, the “fold of the affinity for human Nogo-A” value in assay [4] was at most 8.5 fold; in assay [5], at most 4 fold.
